Paper PMC3093450 (Nature, 2011)

T1: His6-Sec24p (yeast, UniProt P40482 1-926)
T1 sequence (looked up): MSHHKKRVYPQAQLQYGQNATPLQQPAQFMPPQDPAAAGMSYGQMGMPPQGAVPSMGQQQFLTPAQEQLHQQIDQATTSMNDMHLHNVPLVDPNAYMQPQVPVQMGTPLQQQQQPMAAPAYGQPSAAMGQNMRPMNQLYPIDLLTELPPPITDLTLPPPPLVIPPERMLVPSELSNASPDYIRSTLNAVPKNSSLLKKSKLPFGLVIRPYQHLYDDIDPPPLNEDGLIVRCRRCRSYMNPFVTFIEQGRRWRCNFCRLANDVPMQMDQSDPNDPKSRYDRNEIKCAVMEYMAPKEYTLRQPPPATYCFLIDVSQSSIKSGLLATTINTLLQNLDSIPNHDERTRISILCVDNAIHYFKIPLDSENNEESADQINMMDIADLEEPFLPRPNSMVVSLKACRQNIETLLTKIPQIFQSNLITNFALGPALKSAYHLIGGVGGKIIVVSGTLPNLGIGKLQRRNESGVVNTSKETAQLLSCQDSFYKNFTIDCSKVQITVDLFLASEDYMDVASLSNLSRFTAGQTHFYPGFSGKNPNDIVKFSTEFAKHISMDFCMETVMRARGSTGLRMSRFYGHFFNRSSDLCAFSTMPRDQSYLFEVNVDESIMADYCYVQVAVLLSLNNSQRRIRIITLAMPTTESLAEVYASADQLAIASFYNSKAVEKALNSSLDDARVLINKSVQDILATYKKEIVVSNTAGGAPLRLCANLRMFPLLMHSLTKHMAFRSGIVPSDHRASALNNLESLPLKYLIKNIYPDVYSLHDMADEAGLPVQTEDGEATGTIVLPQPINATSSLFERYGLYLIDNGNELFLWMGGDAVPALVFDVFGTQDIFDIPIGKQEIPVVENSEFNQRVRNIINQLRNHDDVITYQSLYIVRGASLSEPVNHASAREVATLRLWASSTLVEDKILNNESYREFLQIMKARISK

B1: GST-Sec23p (natural protein, yeast)
chain: DFETNEDINGVRFTWNVFPSTRSDANSNVVPVGCLYTPLKEYDELNVAPYNPVVCSGPHCKSILNPYCVIDPRNSSWSCPICNSRNHLPPQYTNLSQENMPLELQSTTIEYITNKPVTVPPIFFFVVDLTSETENLDSLKESIITSLSLLPPNALIGLITYGNVVQLHDLSSETIDRCNVFRGDREYQLEALTEMLTGQKPTGPGGAASHLPNAMNKVTPFSLNRFFLPLEQVEFKLNQLLENLSPDQWSVPAGHRPLRATGSALNIASLLLQGCYKNIPARIILFASGPGTVAPGLIVNSELKDPLRSHHDIDSDHAQHYKKACKFYNQIAQRVAANGHTVDIFAGCYDQIGMSEMKQLTDSTGGVLLLTDAFSTAIFKQSYLRLFAKDEEGYLKMAFNGNMAVKTSKDLKVQGLIGHASAVKKTDANNISESEIGIGATSTWKMASLSPYHSYAIFFEIANTAANSNPMMSAPGSADRPHLAYTQFITTYQHSSGTNRIRVTTVANQLLPFGTPAIAASFDQEAAAVLMARIAVHKAETDDGADVIRWLDRTLIKLCQKYADYNKDDPQSFRLAPNFSLYPQFTYYLRRSQFLSVFNNSPDETAFYRHIFTREDTTNSLIMIQPTLTSFSMEDDPQPVLLDSISVKPNTILLLDTFFFILIYHGEQIAQWRKAGYQDDPQYADFKALLEEPKLEAAELLVDRFPLPRFIDTEAGGSQARFLLSKLNPSDNYQDMARGGSTIVLTDDVSLQNFMTHLQQVAVSGQA

Columns and labels:
[1] = target: B1; assay: pull-down
[2] = target: T1, His6-Sec24p; assay: pull-down

Row | Kd [1] [nM] | binding result [2] | Binder
1 | 43 | – | His6-Hrr25p (enzyme, yeast, UniProt P29295 1-494, looked up) MDLRVGRKFRIGRKIGSGSFGDIYHGTNLISGEEVAIKLESIRSRHPQLDYESRVYRYLSGGVGIPFIRWFGREGEYNAMVIDLLGPSLEDLFNYCHRRFSFKTVIMLALQMFCRIQYIHGRSFIHRDIKPDNFLMGVGRRGSTVHVIDFGLSKKYRDFNTHRHIPYRENKSLTGTARYASVNTHLGIEQSRRDDLESLGYVLIYFCKGSLPWQGLKATTKKQKYDRIMEKKLNVSVETLCSGLPLEFQEYMAYCKNLKFDEKPDYLFLARLFKDLSIKLEYHNDHLFDWTMLRYTKAMVEKQRDLLIEKGDLNANSNAASASNSTDNKSETFNKIKLLAMKKFPTHFHYYKNEDKHNPSPEEIKQQTILNNNAASSLPEELLNALDKGMENLRQQQPQQQVQSSQPQPQPQQLQQQPNGQRPNYYPEPLLQQQQRDSQEQQQQVPMATTRATQYPPQINSNNFNTNQASVPPQMRSNPQQPPQDKPAGQSIWL
2 | – | binds | GST-Sec23p S742D (natural protein, yeast) DFETNEDINGVRFTWNVFPSTRSDANSNVVPVGCLYTPLKEYDELNVAPYNPVVCSGPHCKSILNPYCVIDPRNSSWSCPICNSRNHLPPQYTNLSQENMPLELQSTTIEYITNKPVTVPPIFFFVVDLTSETENLDSLKESIITSLSLLPPNALIGLITYGNVVQLHDLSSETIDRCNVFRGDREYQLEALTEMLTGQKPTGPGGAASHLPNAMNKVTPFSLNRFFLPLEQVEFKLNQLLENLSPDQWSVPAGHRPLRATGSALNIASLLLQGCYKNIPARIILFASGPGTVAPGLIVNSELKDPLRSHHDIDSDHAQHYKKACKFYNQIAQRVAANGHTVDIFAGCYDQIGMSEMKQLTDSTGGVLLLTDAFSTAIFKQSYLRLFAKDEEGYLKMAFNGNMAVKTSKDLKVQGLIGHASAVKKTDANNISESEIGIGATSTWKMASLSPYHSYAIFFEIANTAANSNPMMSAPGSADRPHLAYTQFITTYQHSSGTNRIRVTTVANQLLPFGTPAIAASFDQEAAAVLMARIAVHKAETDDGADVIRWLDRTLIKLCQKYADYNKDDPQSFRLAPNFSLYPQFTYYLRRSQFLSVFNNSPDETAFYRHIFTREDTTNSLIMIQPTLTSFSMEDDPQPVLLDSISVKPNTILLLDTFFFILIYHGEQIAQWRKAGYQDDPQYADFKALLEEPKLEAAELLVDRFPLPRFIDTEAGGSQARFLLSKLNPSDNYQDMARGGDTIVLTDDVSLQNFMTHLQQVAVSGQA
3 | – | binds | GST-Sec23p S742D/T747E (natural protein, yeast) DFETNEDINGVRFTWNVFPSTRSDANSNVVPVGCLYTPLKEYDELNVAPYNPVVCSGPHCKSILNPYCVIDPRNSSWSCPICNSRNHLPPQYTNLSQENMPLELQSTTIEYITNKPVTVPPIFFFVVDLTSETENLDSLKESIITSLSLLPPNALIGLITYGNVVQLHDLSSETIDRCNVFRGDREYQLEALTEMLTGQKPTGPGGAASHLPNAMNKVTPFSLNRFFLPLEQVEFKLNQLLENLSPDQWSVPAGHRPLRATGSALNIASLLLQGCYKNIPARIILFASGPGTVAPGLIVNSELKDPLRSHHDIDSDHAQHYKKACKFYNQIAQRVAANGHTVDIFAGCYDQIGMSEMKQLTDSTGGVLLLTDAFSTAIFKQSYLRLFAKDEEGYLKMAFNGNMAVKTSKDLKVQGLIGHASAVKKTDANNISESEIGIGATSTWKMASLSPYHSYAIFFEIANTAANSNPMMSAPGSADRPHLAYTQFITTYQHSSGTNRIRVTTVANQLLPFGTPAIAASFDQEAAAVLMARIAVHKAETDDGADVIRWLDRTLIKLCQKYADYNKDDPQSFRLAPNFSLYPQFTYYLRRSQFLSVFNNSPDETAFYRHIFTREDTTNSLIMIQPTLTSFSMEDDPQPVLLDSISVKPNTILLLDTFFFILIYHGEQIAQWRKAGYQDDPQYADFKALLEEPKLEAAELLVDRFPLPRFIDTEAGGSQARFLLSKLNPSDNYQDMARGGDTIVLEDDVSLQNFMTHLQQVAVSGQA
4 | – | binds | GST-Sec23p T747E (natural protein, yeast) DFETNEDINGVRFTWNVFPSTRSDANSNVVPVGCLYTPLKEYDELNVAPYNPVVCSGPHCKSILNPYCVIDPRNSSWSCPICNSRNHLPPQYTNLSQENMPLELQSTTIEYITNKPVTVPPIFFFVVDLTSETENLDSLKESIITSLSLLPPNALIGLITYGNVVQLHDLSSETIDRCNVFRGDREYQLEALTEMLTGQKPTGPGGAASHLPNAMNKVTPFSLNRFFLPLEQVEFKLNQLLENLSPDQWSVPAGHRPLRATGSALNIASLLLQGCYKNIPARIILFASGPGTVAPGLIVNSELKDPLRSHHDIDSDHAQHYKKACKFYNQIAQRVAANGHTVDIFAGCYDQIGMSEMKQLTDSTGGVLLLTDAFSTAIFKQSYLRLFAKDEEGYLKMAFNGNMAVKTSKDLKVQGLIGHASAVKKTDANNISESEIGIGATSTWKMASLSPYHSYAIFFEIANTAANSNPMMSAPGSADRPHLAYTQFITTYQHSSGTNRIRVTTVANQLLPFGTPAIAASFDQEAAAVLMARIAVHKAETDDGADVIRWLDRTLIKLCQKYADYNKDDPQSFRLAPNFSLYPQFTYYLRRSQFLSVFNNSPDETAFYRHIFTREDTTNSLIMIQPTLTSFSMEDDPQPVLLDSISVKPNTILLLDTFFFILIYHGEQIAQWRKAGYQDDPQYADFKALLEEPKLEAAELLVDRFPLPRFIDTEAGGSQARFLLSKLNPSDNYQDMARGGSTIVLEDDVSLQNFMTHLQQVAVSGQA
5 | – | binds | B1
